Data set [1] has as its target T1, Opti-HEK-VKOR-IIa (FX-IIa with the factor X signal peptide and factor X propeptide variant, co-expressed with human VKOR in HEK, aptamer-purified).
T1 chain 1: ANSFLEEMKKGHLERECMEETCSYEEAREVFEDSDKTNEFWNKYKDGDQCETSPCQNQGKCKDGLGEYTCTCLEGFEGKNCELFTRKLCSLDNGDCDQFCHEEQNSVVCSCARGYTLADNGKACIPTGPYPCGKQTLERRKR
T1 chain 2: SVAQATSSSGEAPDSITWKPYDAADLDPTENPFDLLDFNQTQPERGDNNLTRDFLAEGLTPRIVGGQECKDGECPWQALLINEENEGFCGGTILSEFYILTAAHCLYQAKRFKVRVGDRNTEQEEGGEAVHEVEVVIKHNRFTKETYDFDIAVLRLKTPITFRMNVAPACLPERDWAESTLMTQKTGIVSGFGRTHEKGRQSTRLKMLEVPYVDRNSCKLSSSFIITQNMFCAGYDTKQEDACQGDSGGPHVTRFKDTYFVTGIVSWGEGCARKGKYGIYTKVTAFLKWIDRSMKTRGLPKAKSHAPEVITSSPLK

In data set [2] the target is T2, FVIIv1-psFX-IIa-F2 (FX-IIa expressed with the factor X signal peptide and the FVII isoform v1 propeptide, from HEK, aptamer-purified).
T2 chain 1: T1 chain 1
T2 chain 2: T1 chain 2

B1: factor VIIa/tissue factor (TF) complex (protein)
chain 1: ANAFLEELRPGSLERECKEEQCSFEEAREIFKDAERTKLFWISYSDGDQCASSPCQNGGSCKDQLQSYICFCLPAFEGRNCETHKDDQLICVNENGGCEQYCSDHTGTKRSCRCHEGYSLLADGVSCTPTVEYPCGKIPILEKRNASKPQGRIVGGKVCPKGECPWQVLLLVNGAQLCGGTLINTIWVVSAAHCFDKIKNWRNLIAVLGEHDLSEHDGDEQSRRVAQVIIPSTYVPGTTNHDIALLRLHQPVVLTDHVVPLCLPERTFSERTLAFVRFSLVSGWGQLLDRGATALELMVLNVPRLMTQDCLQQSRKVGDSPNITEYMFCAGYSDGSKDSCKGDSGGPHATHYRGTWYLTGIVSWGQGCATVGHFGVYTRVSQYIEWLQKLMRSEPRPGVLLRAPFP
chain 2: SGTTNTVAAYNLTWKSTNFKTILEWEPKPVNQVYTVQISTKSGDWKSKCFYTTDTECDLTDEIVKDVKQTYLARVFSYPAGNVESTGSAGEPLYENSPEFTPYLETNLGQPTIQSFEQVGTKVNVTVEDERTLVRRNNTFLSLRDVFGKDLIYTLYYWKSSSSGKKTAKTNTNEFLIDVDKGENYCFSVQAVIPSRTVNRKSTDSPVECMGQEKGEFREIFYIIGAVVFVVIILVIILAISLHKCRKAGVGQSWKENSPLNVS
For B1, the “FXa generated after incubation with FVIIa/TF (rate of hydrolysis of PNAPEP substrate), percent of the plasma FXa control” value in data set [1] is 27% activated relative to the FXa for Opti-HEK-VKOR-IIa. In data set [2], the “FXa generated after incubation with FVIIa/TF (rate of hydrolysis of PNAPEP substrate), percent of the plasma FXa control” value is on record as 36% activated relative to the FXa for FVIIv1-psFX-IIa-F2 and the “activity after FVIIa/TF activation, percent of that of the molecule containing the wild-type propeptide (Opti-HEK-VKOR-IIa)” value was “an activity of 142% of that of the molecule containing the wild-type propeptide”.

For the origin of these results see patent US20190338269.
